Drawing on a protein production outcome set (Wang et al. 2014), this text covers protein production for 23 sequences.

A short description of this series: label from the status in PepcDB records.
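Note: failed if final PepcDB status was selected cloned or expressed and not failed if soluble or beyond.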

With “MELKVWVDGVQRIVCGVTEVTTCQEVVIALAQAIGRTGRYTLIEKWRDTERHLAPHENPIISLNKWGQYASDVQLILRRTGP”, the protein production entry was “not failed”. Next, “MELLRPEATVLSLGRRVLSFDREGRPYHYFREGKTYKRALDGSLHLRYREGERRRRRLAPEEALGVYQEVLDLAEAHLRDERRREEVLRWTPEGLLDPTPYRRAYAWPVSILPPDAYLSVVLQATTGCTWNRCAFCSFYQDRPFQKRTPEAFREHIQAVLALLGRGRLLRRGVFLADGNALALSEPLLPLLELVRAHFPGEPVMGFLDLFTGLKKAPSWWERLGGMGLRRVYIGLETGHAPLLALLRKPGHPKEVLPLVRALKAAGLSVGVILMVGAGGKAFAEAHFRESLALLAELPLGRGDVVYLSPFREDPGTPYAALGLAPLEDLEGELQRWAQAVRRLGLRASRYEIREFLY”: “failed”; “MELLSIVIFGLLIVVSPSADFVLVFKNSAMHSRKAGMLTAIGIGAGVCVHISYSIIGISQLIANNAGLFSLVKYVGAAYLIYIGIAGLLSAKLTLDYGTQLIKPVENRKYIMQGFLCNVLNPKTMIFFLSVFSQLISSHSDSLAFVISYGVYIAVLHGIWFCIVAYLVTSAKATRVLKRFGHRINQACGVGLITFGVILSTND”: “failed”; “MELMKKFTSYTCSPIFVVVACAICLLVGFSINSSIIEIFASVMGIINVWLLSREKVSNFIFGIITVVAYLYIYYNTGLYALAVLACFQVGFNIFGWYYWVKNSDQEDNVVTSGLTKKGQILWTIIILAAWAVWGYVEINILHAQNAILDSLTAVLGLVAQYWLSKKLYENWILWILSNILFIIIYILNGYYVMLILVAIQLILSISGLLEWYASFKEQGENKLTL”: “failed”. With “MELNAVKSSYARWAPIYDKTFGAITNVGRHAAVDYINAHDATELLEVGVGTGLSLPNYRPGLKVTGIDFSEEMLAKARAKVESLGLGHVQSLRQMDARDLDFADASFDVVAAMHIISVVPEPERVMAEMARVCKPGGLIVITNHFARDSGMLARVERFAAPFANLLGWHPDFEISSVLKQPDLTVIERKSLPPMGMMTFLVLQKCELEHHHHHH”, the protein production result is “not failed”. Next, “MELNAVKSSYARWAPIYDKTFGAITNVGRHAAVDYINAHDATELLEVGVGTGLSLPNYRPGLKVTGIDFSEEMLAKARAKVESLGLGHVQSLRQMDARDLDFADASFDVVAAMHIISVVPEPERVMAEMARVCKPGGLIVITNHFARDSGMLARVERFAAPFANLLGWHPDFEISSVLKQPLEHHHHHH”: “failed”; “MELQHGQQRHIFEIRLFPEFDKAGMLKSILSVDRDVTATRQGERLLAEENEVLEMIAGNHPLPQTLEQICQMMESQQPGSMCSVLLLEEDGQSLRFAAGLSLPPAYRKLSERVAVGPSVGSCGTAAHWKRTIVVDDIQTSPLWAHALHKVQPFGLRACWSMPIFSSDRQLLGTLATYYREPRSPSQEELALAQRITRIIAIALQRDGHEKQLYRLATQDGLTELNNRRQFIELADREIERSRRHGSRMSVLMMDLDHFKDINDHYGHAVGDEVIRHFSQVCREVLRASDLCGRLGGEEFAAVLPDTGLDDARQVAERLRSLASSARLSAVSGSLGYTVSIGVAERHADETDIDEVLGRADKQLYQAKRDGRNRVSGAAPAHCG”: “failed”; “MELSQRQERIIEIVKTKGPITGEQIADKLNLTRATLRPDLAILTMSGFLEARPRVGYYYSGKSKGKFFNEKLRQFEVKDYMSQPVVLRENTTVYDAICTIFLEDVSTLFIINEDNDFVGVCSRKDLLRASMIGADIHTVPISVNMTRMPNVTYLEESELVIYAADRMIEKEIDSIPIVRKKDNQKYEVIGRISKTTIAKLLVALYKE”: “not failed”. The result for “MELTELLDIGRQERSQQKPVQIRCCTAAGCLSANSQAVQQQLEQAVKAEGLEGEVQVSGVGCMRLCCQGPLVEVEGSGEEKTKQRLYEKVTPEDASAIIGAL” reads “failed”. With “MELVFDKDGLSAYLEEVFPQIQGEFSIDALAKGEITMRLNVQERHLRPGGTVSGPSMFALADVSVYALVLAHLGREALAVTTNASLDFMRKPESGRDLLGQARLLKLGRTLAVGDILLFSEGMEAPVARSTMTYSIPPKR”, the protein production entry is recorded as “not failed”.

As to “MEMNRRRSRGFMIAKLMPFCKAVKSPTPSQDLYNNVHYTSSTTTSYARQPDFNNYVTATTPLPPKVSFLLQPSLAPEGKDMEKKLNMMAEKLIGRGINGVDDCVDARAASYISSVRERFKADQYCEKLTTVISLDDEN”, the protein production result is reported as “failed”. As for “MENDDVMTPPWLTPMLRADYFVTCSIHSQSSKSECNLFCLDCSGNAFCSSCLAHHRTHRVIQIRRSSYHNVVRVSEIQKHIDISCIQTYVINSAKIFFLNARPQCRTGKSLNKTCQICSRNLLDSFLFCSLACKLEGVKNGEDPNLTLFHSGKSDDSSKIINTGICSRLIDGISIAVDDQRSETAGVLSPETPSIESHRNYPMKSRRKGIPQRAPF”, the protein production result is given as “failed”. As for “MENEENSAREQEADDFLHIASVKEDWGGDGRGRMNLSGRRTAIAKEYLPRQYQFFDTNTVMEKQGWRVRGMPDNIAPGSRRLLTWHDSGASTSRVVLPPKFEAPSGIFTADLEIFVIKGAIQLGEWQLNKHSYSFIPAGVRIGSWKVLGGEEAEILWMENGSVPLEYKYAQEDHPDARLSDFIPALDSKLLPWGKADTVQFVQANKKWLRKDINGGGVWLLAILPHFDNKYQMIQPYNEEGYCLTGYCDVGDYRIVKDHYWYCPSFSTLPRHITDDGGLFFVRVDRDLSKVATVLSYAPQDT”, the protein production result is “not failed”. Next, “MENETVSELNQTQLQPRAVVALEYQVVTILLVLIICGLGIVGNIMVVLVVMRTKHMRTPTNCYLVSLAVADLMVLVAAGLPNITDSIYGSWVYGYVGCLCITYLQYLGINASSCSITAFTIERYIAICHPIKAQFLCTFSRAKKIIIFVWAFTSLYCMLWFFLLDLNISTYKDAIVISCGYKISRNYYSPIYLMDFGVFYVVPMILATVLYGFIARILFLNPIPSDPKENSKTWKNDSTHQNTNLNVNTSNRCFNSTVSSRKQVTKMLAVVVILFALLWMPYRTLVVVNSFLSSPFQENWFLLFCRICIYLNSAINPVIYNLMSQKFRAAFRKLCNCKQKPTEKPANYSVALNYSVIKESDHFSTELDDITVTDTYLSATKVSFDDTCLASEVSFSQS”: “failed”. The result for “MENGLAQGIGGIAFLVGVMAFWQKDDLRFRYQMMAFCFIMGVHFALLGATVAAIGVVINGIRSFASIKTQSRKVMWFFIALMWLMTLPNMSHFFELLTVIGSSVATWALFSKQGIALRSLILFNSFCWVSHNLWLGSIGGSLVESTFIVTNLLTIYRLFHAQERISQTQNNQFLASNTESSTD” reads “failed”; that for “MENRSHALLAGLFTLALLVAAALVAIWVGRDRAALKPYVIVSATSVSGLSAQSTVRYQGVPVGKVQSLGFNPDKPAQVRISIGVAPDTPITESTWAELGVQGVTGLGNIELRDDGTSTRRLASSAAMPATIPLRPGFFQRFEQRGGEILHNVEQVSARLERLLSNENVQATTATLQNIAAITTDLRQAATELRPALAQVPPLVDSLQAMSRNTGQAAQEIAGLAQAARQALARLDAPDGPLAMATRSMRDIAWAAARLDAQTLPAVSGMASSIDSAARSATTTLRRVGDTPQSLLFGPPPTVPGPGEPGFAGFGR”, “failed”; that for “MENWDLSSDEMQDGNAPELDVIEEHNPVTRDDENANPEEVVGDTRSPVQNILGKFEGDINKRLHIKRKRMETYIKDSFKDSNVKLEQLWKTNKQERKKINNKFCEQYITTFQKFDMDVQKFNEEQEKSVNNYQKEQQALKLSKCSQSQTLEAIKDMHENYMEGLMNLETNNYNMLFDVDGELRKEMSVFKKDLMKHTLKYSSSFPSSD”, “failed”.

Take “MEPCLHPTLVDETSLVLYLDLARETGYRYVDVPFHWLEAEAERHGDAAVEAMFQRRGLVLANLGLPLNLYDSEPVFLRELSLLPDRARLCARLGARSVTAFLWPSMDEEPVRYISQLARRIRQVAVELLPLGMRVGLEYVGPHHLRHRRYPFVQSLADLKTFWEAIGAPNVGALVDSYHWYTAGEHEDDLAQLPPEKVVYVHINDTRDAPEDAHDGKRLLPGDGRIPLVPFLRGLYLAGYRGPVAAEVLHETPLDGTGESRARLVRERLEKLIALAKGEN”: the protein production entry is given as “not failed”.

Consider “MEPHAESAAAGQAAPPEKRRASWFTRMGRVVRFAGQRADEQKLLQVASSLTFTTVLAIVPMLAVVLSLFTAFPVFQEFRVALEDFLANSLMPPSVSDNIMDYLNQFARQATRLTAIGGAFLIVTSLLLIMTIDKTFNDIWQVTRQRPLPQRALVYWAVITLGPVVAGASLWATSFVARESLGLVRDVPEAVSVAISFIPLVLTGLGFAALFVVVPNRRVYWKDALVGGFGTAIVLELMKAGFAYYLTRFPAYTVIYGAFATLPIFLLWIYLSWLAVLFGATVAASAPLIRLGRWEINRHAGAPFIDALGVLRVLHAAQGSRPAGRSANALAKRLRLHHDELNAVLEALEDMELVARTAEQRWVLTCDPRTTTLEPVFDRFLLDRGQPRLRDEPEIAAVAAGVLGQGPDPTLADLAGVAQNTDIGPAAAVLQLETGKK”, for which the protein production result was “failed”. The result for “MEPSCTQNGMKPKLKISDLSRSLGPGIMMAAAAVGGSHLVASTKAGAIYGWEMLLLILAVNLLKYPFFRAGVQYTLGTGDSIIQGYHKLGRGYLWVFLVLSAISAVVNTAALLLFSASLLGYFLPFDLSLNVLSSIVLITCITILFAGHFKALDKLSKLIMATLTIATTIALGVAFSNGAVAPTDYQGPSVWSIASIGFLVITMGWMPAPIEISSITSMWLKRQCQTQKVTPQSALFDFNVGYIGTAILAVVFLSLGALVLYGSGIEFKASGIGFSHQLVGIYAATIGEWSRYLIAVIAFFCIFGSTITVIDGYSRAVSEAQLLLQRKPLNQPKHYNSWVMIVSVLAITIVTLFISSLMSMLDFAMIMAFITTPIFAALNYILVTKTELPDELRMGAKLKALSIVGLIYLFGFLAIFVWWKWLM” reads “failed”; that for “MEQDASAKNPDIETENKGAISEEEALIQREYSLLIQDYLNSNHRRKVEKIDKAFHLAKDAHAGAKRRSGEPYILHPIAVARIVCQEIGLGSTSICCALLHDVVEDTEYTVEDMRDMFGDKVAQIVDGLTKISGEVFSNSSAQAENFRKLILTMNDDIRVILIKIADRLHNMRTLDSMLPAKQMKIAGETQYVYAPLAHRLGLFAIKSELEDLSFKYEHPQEYEAIKEKIRITEQHRLEMFEHFAAPLKQRFAGMDMSYEMKARVKSVYSIWKKMEKKGVPFEEIYDLFAVRIIFESSPTIPDKNRCWEIYSAITDIYRNRPDRIRDWVSNPKSNGYQALHLTVMGPDGEWVEVQIRSRRMDDIAEKGFAAHWKYKGDNVEEDSELEKWLSTIQEILENPNPNALDFLDTIKLNLFSNEVMVFTPKGEIKRLPQGATALDFAYSLHSDLGDHCIGAKVNHKLVPLSYVLNSGDQVEVLSSKSQQPTEEWLRYVTTARAKSKVDTFLRRKRRELINRGEERVVSVIRTSESMVSAELLDRIAAYFGFLNRETFFYAVGTGTVSLPESFKKLLQGEHSGNFLMRAIRSALKAGKSNKTSSPSGKPAEKEDKKAYNTKKTYILQEDEFSRNYQIAECCKPIPGDDAFGFINDDNTVVVHKRSCPIAMRLKSSFGNRILSTEWSLHSRTSFEAKLALKGIDSTGILTAVTQVISEDFNVGIKHIQLTAKDGIFEGQIHLLVHSSDDLLKICHQLRQNKYIQSVGRIS”, “failed”; that for “MEQDTQHVKPLQTKTDIHAVLASNGRIIYISANSKLHLGYLQGEMIGSFLKTFLHEEDQFLVESYFYNEHHLMPCTFRFIKKDHTIVWVEAAVEIVTTRAERTEREIILKMKVLEEETGH”, “failed”.

With “MEQHIGELIAHYGYFGIVIALAGGIVGLPIPDEFLLTFVGYNVSKGVMSGTAAFLSGLAGAMLGITLSYILGLKLGLPVLKKYGPKIRIKEHHIEKTHILFEKYGPFLLMIGYFIPGVRHLTAYFAGVSNLTLWRFCLYAYGGALIWISVFIGLGWKLGEKWRFVEYSLHHYGIWILLISAVVTCFVWLYIKKKKNR”, the protein production entry is on record as “failed”.
